Our source for the binding signal values is PMC9426499.

One data set relates to ParRD(pJIR3118) (Clostridium perfringens plasmid pJIR3118 (CN1020 gDNA)). Briefly: SPR.
As to “AAATAATATCAAATAATATTATTTAATGTC / GACATTAAATAATATTATTTGATATTATTTCCTACCCTACGTCCTCCTGC [parCD D4]”, the binding signal turned out to be 232 RU.
In turn, “ACATTAAAAGATACTAATTAATATTATTTA / TAAATAATATTAATTAGTATCTTTTAATGTCCTACCCTACGTCCTCCTGC [parCD D12]” showed a binding signal of 250 RU.
Same read-out and setting: for “AGGTTATTTAATGTTAAATGATATTAAATA / TATTTAATATCATTTAACATTAAATAACCTCCTACCCTACGTCCTCCTGC [parCD D9]” the value was 213 RU; for “ATACTAATTAATATTATTTAATTATTGACT / AGTCAATAATTAAATAATATTAATTAGTATCCTACCCTACGTCCTCCTGC [parCD D13]”, 187 RU.
Still for that read-out and setting: for “ATATTAAATAACATTAAAAGATACTAATTA / TAATTAGTATCTTTTAATGTTATTTAATATCCTACCCTACGTCCTCCTGC [parCD D11]” the value was 236 RU; for “ATGTTAAATGATATTAAATAACATTAAAAG / CTTTTAATGTTATTTAATATCATTTAACATCCTACCCTACGTCCTCCTGC [parCD D10]”, 270 RU; for “GAATAATATTAAATAATATCAAATAATATT / AATATTATTTGATATTATTTAATATTATTCCCTACCCTACGTCCTCCTGC [parCD D3]”, 225 RU.
“TTTATTAATTTCACTATATGTATATACTGA / TCAGTATATACATATAGTGAAATTAATAAACCTACCCTACGTCCTCCTGC [parCB B1]”: the binding signal is 1.1 RU.

Another data set relates to ParRB(pJIR4165) (Clostridium perfringens plasmid pJIR4165). The data set is described as follows: SPR.
With “AGGTATAAACTCAGTATATACATGATTGAA / TTCAATCATGTATATACTGAGTTTATACCTCCTACCCTACGTCCTCCTGC [parCB B17]”, the binding signal worked out at 368 RU.
On to “TAGTATATATCTAGTATATACTAAATTTAT / ATAAATTTAGTATATACTAGATATATACTACCTACCCTACGTCCTCCTGC [parCB B21]”, for which the binding signal is 377 RU.
“TCACTATATGTATATACTGAATATATACAT / ATGTATATATTCAGTATATACATATAGTGACCTACCCTACGTCCTCCTGC [parCB B2]” registered a binding signal of 383 RU.
“TTTATTAATTTCACTATATGTATATACTGA / TCAGTATATACATATAGTGAAATTAATAAACCTACCCTACGTCCTCCTGC [parCB B1]” returned a binding signal of 58 RU.

The test system of a further data set is ParRC(pCW3) (Clostridium perfringens plasmid pCW3). Briefly: SPR.
Take “AAAAAACATCACAATTTTACATAATAGAAA / TTTCTATTATGTAAAATTGTGATGTTTTTTCCTACCCTACGTCCTCCTGC [parCC C16]”: the binding signal is 311 RU.
For the sequence “AAAATGAAAAAAACATCACAATTTTACGGA / TCCGTAAAATTGTGATGTTTTTTTCATTTTCCTACCCTACGTCCTCCTGC [parCC C5]”, the binding signal amounted to 249 RU.
Sequence “AAACATCACAATTTTACGGAAAATGCTTGA / TCAAGCATTTTCCGTAAAATTGTGATGTTTCCTACCCTACGTCCTCCTGC [parCC C6]” came in with a binding signal of 282 RU.
On to “AATATAAAAACATAAACATCACAATTTTAC / GTAAAATTGTGATGTTTATGTTTTTATATTCCTACCCTACGTCCTCCTGC [parCC C11]”, for which the binding signal was 154 RU.
In the case of “AATTAAAAACATCACAATTTTACGTAATGA / TCATTACGTAAAATTGTGATGTTTTTAATTCCTACCCTACGTCCTCCTGC [parCC C1]”, the binding signal came out at 256 RU.
Still for that read-out and setting: the value for “ACAATTTTACGTAATTTAGATTTTGCAAGT / ACTTGCAAAATCTAAATTACGTAAAATTGTCCTACCCTACGTCCTCCTGC [parCC C13]” was 48 RU; that for “ATCACAATTTTACGTAATGACAGTTTGTTG / CAACAAACTGTCATTACGTAAAATTGTGATCCTACCCTACGTCCTCCTGC [parCC C2]” was 54 RU.
In the case of “ATTTTACGGAAAATGCTTGATTTAGATTGA / TCAATCTAAATCAAGCATTTTCCGTAAAATCCTACCCTACGTCCTCCTGC [parCC C7]”, the binding signal came to 9 RU.
Sequence “CATAAACATCACAATTTTACGTAATTTAGA / TCTAAATTACGTAAAATTGTGATGTTTATGCCTACCCTACGTCCTCCTGC [parCC C12]” yielded a binding signal of 348 RU.
“GTAATTTAGATTTTGCAAGTAAAAAACATC / GATGTTTTTTACTTGCAAAATCTAAATTACCCTACCCTACGTCCTCCTGC [parCC C14]”: the binding signal was 42 RU.
On the same count and under the same terms, the value for “TTTATTAATTTCACTATATGTATATACTGA / TCAGTATATACATATAGTGAAATTAATAAACCTACCCTACGTCCTCCTGC [parCB B1]” was -2.8 RU; that for “TTTTGCAAGTAAAAAACATCACAATTTTAC / GTAAAATTGTGATGTTTTTTACTTGCAAAACCTACCCTACGTCCTCCTGC [parCC C15]” was 217 RU.
